Data on two substances can be found in patent US20200038505A1.

This assay addresses EBVgp350/220 wild type (full length, BLLF1, EBV strain B95-8) (Epstein-Barr virus strain B95-8) (UniProt P03200). Nature of the assay: cell-based or functional assay.
Chain of UniProt P03200 (P03200 whole entry): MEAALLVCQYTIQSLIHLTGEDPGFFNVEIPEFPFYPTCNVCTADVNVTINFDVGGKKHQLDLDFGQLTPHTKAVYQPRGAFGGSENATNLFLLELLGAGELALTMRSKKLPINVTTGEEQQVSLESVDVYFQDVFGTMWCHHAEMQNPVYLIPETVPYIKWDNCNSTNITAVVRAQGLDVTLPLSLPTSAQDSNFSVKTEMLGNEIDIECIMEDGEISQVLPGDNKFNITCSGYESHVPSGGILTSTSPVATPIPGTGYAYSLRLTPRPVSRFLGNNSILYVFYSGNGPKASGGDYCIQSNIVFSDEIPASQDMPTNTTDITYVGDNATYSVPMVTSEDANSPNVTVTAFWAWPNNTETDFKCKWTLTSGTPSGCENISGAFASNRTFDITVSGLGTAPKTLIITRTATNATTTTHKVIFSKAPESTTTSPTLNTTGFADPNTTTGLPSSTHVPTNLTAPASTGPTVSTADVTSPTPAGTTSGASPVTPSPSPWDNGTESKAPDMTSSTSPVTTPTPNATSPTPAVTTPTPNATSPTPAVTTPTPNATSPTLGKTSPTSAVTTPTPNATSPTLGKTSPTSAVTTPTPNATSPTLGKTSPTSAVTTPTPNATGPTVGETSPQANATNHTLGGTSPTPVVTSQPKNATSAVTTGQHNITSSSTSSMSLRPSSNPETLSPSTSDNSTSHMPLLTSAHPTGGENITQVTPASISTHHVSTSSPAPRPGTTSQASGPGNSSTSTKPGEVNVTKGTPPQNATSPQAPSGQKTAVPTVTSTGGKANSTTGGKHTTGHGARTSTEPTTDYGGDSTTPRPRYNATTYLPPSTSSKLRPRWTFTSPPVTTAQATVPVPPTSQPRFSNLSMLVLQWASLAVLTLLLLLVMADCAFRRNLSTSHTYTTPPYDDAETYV

Regarding “monoclonal antibody mAb-2L10 anti-gp350/220”, the percent fluorescent (EGFP+) Raji cells after infection with EGFP-EBV pre-incubated with the antibody was determined as 27% and the percent of EGFP+ Raji cells post-infection stood at 25%. On to “monoclonal antibody mAb-72A1 anti-gp350/220”, for which the percent fluorescent (EGFP+) Raji cells after infection with EGFP-EBV pre-incubated with the antibody is 1%.
